Source: patent US7592156B2, “Synthetic dog/human chimeric C-C chemokine receptor 2B” (Wyeth, priority 2006, dated 2009)

Assays:
chimeric dog-human CCR2B = target: T1, chimeric dog-human CCR2B (Homo sapiens, UniProt P41597, A111V/A286I/C181V/C75S/D36S/E105G/E278K/F108L/F271S/G175R/G191S/G197A/G224A/G273N/G41A/I128T/I163V/I208V/I217V/I263L/I300V/I40V/I93L/K180T/K183I/K38R/L115S/L166M/L274V/L76M/L95I/L97F/N110E/N199K/N207S/N266S/P195Q/Q43G/R196Q/R240K/R243K/S101Y/T247V/T257A/T287M/V107L/V162G/V173L/V187F/V189S/V244L/Y188S/Y193Q/Y259N); experiment: FLIPR calcium mobilization agonist assay in CHO-K1 cells expressing chimeric dog-human CCR2B; type: cell-based
T1 construct: expressed in transfected cells
T1 sequence (P41597 1-360 isoform P41597-2 D36S/K38R/I40V/G41A/Q43G/C75S/L76M/I93L/L95I/L97F/S101Y/E105G/V107L/F108L/N110E/A111V/L115S/I128T/V162G/I163V/L166M/V173L/G175R/K180T/C181V/K183I/V187F/Y188S/V189S/G191S/Y193Q/P195Q/R196Q/G197A/N199K/N207S/I208V/I217V/G224A/R240K/R243K/V244L/T247V/T257A/Y259N/I263L/N266S/F271S/G273N/L274V/E278K/A286I/T287M/I300V): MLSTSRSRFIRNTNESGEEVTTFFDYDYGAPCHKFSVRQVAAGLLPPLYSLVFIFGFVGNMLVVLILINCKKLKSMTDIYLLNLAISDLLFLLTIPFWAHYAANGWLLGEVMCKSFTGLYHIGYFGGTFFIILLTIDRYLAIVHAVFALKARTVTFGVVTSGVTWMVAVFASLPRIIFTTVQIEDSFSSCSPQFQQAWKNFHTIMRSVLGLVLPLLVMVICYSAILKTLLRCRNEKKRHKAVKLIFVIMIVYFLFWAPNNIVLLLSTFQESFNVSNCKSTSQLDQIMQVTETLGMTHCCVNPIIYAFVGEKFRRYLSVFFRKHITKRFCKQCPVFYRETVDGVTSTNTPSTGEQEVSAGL
Description: The chimeric CCR2B/cDNA3.1 plasmid of Example 1 was expressed in CHO-K1 cells using the Lipofectamine-Plus reagent (Invitrogen, Carlsbad, Calif., USA) according to manufacturer's instructions, and the resulting stable cell lines following selection with the antibiotic G418 were assayed for MCP-1-dependent calcium mobilization in a FLIPR assay. Cells were plated at 15,000 per well in a 384-well assay plate one day prior to assay. Calcium-3 indicator dye (Molecular Devices, Sunnyvale, Calif., USA) was added 1 hr prior to assay, and cells were incubated at 37° C. For the agonist assay, human MCP-1 was added to cells, followed immediately by reading of calcium mobilization on the FLIPR. RFU counts (Max-Min) were recorded for each MCP-1 concentration assayed. For the antagonist assay, the antagonist was added to the cells 20 min prior to addition of MCP-1. The MCP-1 activation of calcium mobilization in CCR2B/CHOK1 cells of Example 2 was extended to include examination of the effects of mouse and canine MCP-1 (FIG. 4A). […] The qualitative similarity of the results in the CHOK1 cells expressing the chimeric receptor and THP-1 cells, with their endogenous expression of the human receptor, lends evidence that the chimeric receptor faithfully recapitulates the activation pharmacology of the native receptor.

human CCR2B = target: T2, human CCR2B (Homo sapiens, UniProt P41597); experiment: FLIPR calcium mobilization agonist assay in THP-1 cells; type: cell-based; conditions: endogenous human CCR2B expression
T2 construct: THP-1 cells, with their endogenous expression of the human receptor; endogenous in cells; host or cells: THP-1 (human monocyte cell line)
T2 sequence (P41597 1-360 isoform P41597-2): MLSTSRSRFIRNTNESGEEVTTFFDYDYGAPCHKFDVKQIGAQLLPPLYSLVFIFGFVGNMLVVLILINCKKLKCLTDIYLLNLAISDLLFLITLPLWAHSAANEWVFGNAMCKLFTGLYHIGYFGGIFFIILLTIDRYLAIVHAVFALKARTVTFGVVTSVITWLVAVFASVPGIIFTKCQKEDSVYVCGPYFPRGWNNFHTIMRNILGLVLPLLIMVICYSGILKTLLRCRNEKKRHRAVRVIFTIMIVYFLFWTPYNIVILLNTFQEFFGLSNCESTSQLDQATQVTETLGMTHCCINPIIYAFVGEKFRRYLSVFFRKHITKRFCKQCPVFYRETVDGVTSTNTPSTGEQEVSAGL

Substance	EC50 (chimeric dog-human CCR2B)	EC50 (human CCR2B)
mouse MCP: mouse monocyte chemoattractant protein-1 (chemokine)	0.038 µM	0.03 µM
cMCP-1: canine monocyte chemoattractant protein-1 (chemokine)	0.138 µM	0.053 µM
